Source: paper PMC2691816 (Nucleic Acids Research, 2009)

Molecular target: purified hXRCC1 protein (human, UniProt P18887 1-633)
Test: far-Western, overlay or dot blot

Chain of purified hXRCC1 protein (P18887 whole entry): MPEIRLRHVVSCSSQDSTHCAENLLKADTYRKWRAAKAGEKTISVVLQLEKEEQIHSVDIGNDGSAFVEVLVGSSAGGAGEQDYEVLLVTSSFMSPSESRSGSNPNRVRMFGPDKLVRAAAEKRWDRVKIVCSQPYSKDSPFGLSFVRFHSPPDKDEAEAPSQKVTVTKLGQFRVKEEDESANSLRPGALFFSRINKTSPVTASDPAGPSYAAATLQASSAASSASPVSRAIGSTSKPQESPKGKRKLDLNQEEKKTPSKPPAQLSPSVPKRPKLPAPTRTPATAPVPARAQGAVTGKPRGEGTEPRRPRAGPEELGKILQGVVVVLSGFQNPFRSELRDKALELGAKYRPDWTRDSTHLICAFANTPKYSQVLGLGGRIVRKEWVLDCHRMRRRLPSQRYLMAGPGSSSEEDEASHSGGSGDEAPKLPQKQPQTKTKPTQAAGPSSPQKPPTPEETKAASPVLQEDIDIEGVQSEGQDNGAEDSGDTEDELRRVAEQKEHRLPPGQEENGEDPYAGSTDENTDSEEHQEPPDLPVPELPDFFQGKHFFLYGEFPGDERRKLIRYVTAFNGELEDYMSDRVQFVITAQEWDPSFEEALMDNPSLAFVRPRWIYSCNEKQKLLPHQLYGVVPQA

B1: His-tagged p58 N-terminal domain (amino acids 1–266) (domain or fragment, human, UniProt P49643 1-266, looked up)
chain: MEFSGRKWRKLRLAGDQRNASYPHCLQFYLQPPSENISLIEFENLAIDRVKLLKSVENLGVSYVKGTEQYQSKLESELRKLKFSYRENLEDEYEPRRRDHISHFILRLAYCQSEELRRWFIQQEMDLLRFRFSILPKDKIQDFLKDSQLQFEAISDEEKTLREQEIVASSPSLSGLKLGFESIYKIPFADALDLFRGRKVYLEDGFAYVPLKDIVAIILNEFRAKLSKALALTARSLPAVQSDERLQPLLNHLSHSYTGQDYSTQG
binding result: binds
